# Source: patent US8492329B2, “Bioactive peptides and methods of using same” (Compugen Ltd., priority 2007, dated 2013)
# No end group written: not given here.
# What was measured:
# LGR7 (RXFP1) = target: T1, LGR7 (RXFP1) (Homo sapiens, UniProt Q9HBX9); test: cAMP accumulation (Hit Hunter cAMP kit) in CHO-K1 cells transiently transfected with LGR7; assay type: cell-based; design: expressed in transfected cells; host or cells: CHO-K1 (transient); settings: for cAMP inhibition (Gi) effect: 1 uM, LGR7 CHO-K1 cells pre-treated with 10 uM Forskolin, FIG. 1; for cAMP dose response with Forskolin / Gs (cAMP increase) dose response without Forskolin: LGR7; for cAMP dose response with Forskolin: 10 uM Forskolin, 1 nM to 10 uM, FIG. 4A; for Gs (cAMP increase) dose response without Forskolin: low concentrations 3-100 nM, FIG. 4B
# T1 sequence (Q9HBX9 1-757): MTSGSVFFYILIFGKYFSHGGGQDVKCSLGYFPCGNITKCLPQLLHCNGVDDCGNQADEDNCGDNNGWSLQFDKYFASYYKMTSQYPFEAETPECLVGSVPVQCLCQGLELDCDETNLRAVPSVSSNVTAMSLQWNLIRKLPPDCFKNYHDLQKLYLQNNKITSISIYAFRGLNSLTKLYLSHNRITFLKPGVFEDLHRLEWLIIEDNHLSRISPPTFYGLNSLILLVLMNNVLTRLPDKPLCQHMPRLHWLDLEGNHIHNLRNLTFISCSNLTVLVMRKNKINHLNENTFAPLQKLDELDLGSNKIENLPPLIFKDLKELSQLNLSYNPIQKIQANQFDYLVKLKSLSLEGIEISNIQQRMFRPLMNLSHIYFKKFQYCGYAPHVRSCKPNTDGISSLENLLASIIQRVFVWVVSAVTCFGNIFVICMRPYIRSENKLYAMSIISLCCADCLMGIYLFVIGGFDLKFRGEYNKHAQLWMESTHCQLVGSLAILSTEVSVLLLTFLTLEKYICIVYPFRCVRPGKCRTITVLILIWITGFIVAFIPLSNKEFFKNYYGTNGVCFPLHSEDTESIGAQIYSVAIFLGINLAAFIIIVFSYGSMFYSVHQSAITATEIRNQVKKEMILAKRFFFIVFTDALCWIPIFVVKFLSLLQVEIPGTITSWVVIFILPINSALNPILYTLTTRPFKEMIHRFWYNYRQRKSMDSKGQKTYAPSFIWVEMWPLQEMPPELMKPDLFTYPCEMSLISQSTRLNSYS
# Procedure: The ability of Peptides to affect cAMP concentration was examined in CHO-K1 cells transiently transfected with LGR7 (RXFP1) or LGR8 (RXFP2). The experiment measured cAMP concentration in response to the addition of the peptides.
# LGR7 (RXFP1) or LGR8 (RXFP2) were transiently transfected into CHO-K1 cells as follows: Cells (12 million) were plated into T75 flasks on the day preceding transfection. Cells were transfected with a GPCR DNA and Gα16 using a lipid technique according to the manufacturer's recommendation. Cells were transfected for 5 hours, then re-plated into 96-well dishes (60,000 cells per well) and grown overnight. Transfected cells were plated into 24 wells of a 96-well plate. Cells were pre-treated with 0.5 mM IBMX (stimulation buffer) for 10 min at 37° C., then stimulated with either a positive control (Relaxin 2) or a candidate peptide (for Gs functional examination), followed by stimulation or a preincubation with 10 μM forskolin (for Gi functional examination). Following a 20 minutes stimulation by incubation with 1 μM of either positive control or the tested peptides, either with or without forskolin, intracellular cAMP was assayed using the Hit Hunter cAMP kit (DiscoveRx Corporation) according to the manufacturer's recommended protocol. Data was converted to nmol of cAMP by running a standard cAMP curve.
# Relaxin was used as a positive control. cAMP level was elevated by pre-treatment with forskolin.
# The transfected CHO-K1 cells were treated with 10 uM of Forskolin (Applied cell sciences (ACS)) for 10 minutes and then challenged with 1 uM of H2 Relaxin (ACS) (as a positive control), 1 uM of Peptide P59C13V (P59) (SEQ ID NO: 6), and Peptide P74C13V (P74) (SEQ ID NO: 10).
# CHO-K1 cells transiently transfected with LGR7 (RXFP1) were treated with 10 uM of Forskolin for 10 minutes and then challenged with either H2 Relaxin (as a positive control), P59C13V (P59) (SEQ ID NO: 6) or P74C13V (P74) (SEQ ID NO: 10) at increasing concentrations, from 1 nm to 10 uM (FIG. 4A) and from 3 nM to 100 nM (FIG. 4B). cAMP concentrations were determined at each point, as described above with (FIG. 4A) or without (FIG. 4B) the presence of Forskolin.
# LGR8 (RXFP2) = LGR8 (RXFP2) (Homo sapiens, UniProt Q8WXD0); test: Competition with Europium labelled INSL3 binding to HEK-293T cells expressing LGR8; design: expressed in transfected cells; settings: LGR8 HEK-293T, FIG. 10; for effect on binding of Europium-INSL3: 0.01 nM-10 μM
# Procedure: The ability of Peptides P74C13V (SEQ ID NO: 10) and P59C13V (SEQ ID NO: 6) to compete with the binding of known ligands to LGR7 or LGR8 was tested by testing the ability of P74C13V (SEQ ID NO: 10) and P59C13V (SEQ ID NO: 6) to compete with the binding of Europium labelled H2 Relaxin or INSL3 (manufactured by the H. Florey institute) to stable HEK-293T cell lines expressing LGR7 or LGR8 respectively.
# HEK-293T cell lines expressing LGR8 (RXFP2) were treated with Europium labeled INSL3 (manufactured by the H. Florey institute). The cells were then treated with decimal increasing concentrations (0.01 nM, 0.1 nM, 1 nM, 10 nM, 100 nM, 1 μM, 10 μM) of un-labeled INSL3 (as a positive control) and the tested peptides P59C13V (P59) (SEQ ID NO: 6), P59C13V-Amide (P59-Amide) (SEQ ID NO: 5), P59-S-Amide (P59S) (SEQ ID NO: 1) and P74C13V (P74) (SEQ ID NO: 10). The binding results are shown as a percentage of specific binding of the radioactive test INSL3 (where 100% is the baseline radiation level). […] This means that the binding affinity of the Eur-INSL3 was increased by binding/activity of the P59C13V (P59) (SEQ ID NO: 6) peptide on the LGR8 receptor.
# Sequence of LGR8 (RXFP2) (Q8WXD0 whole entry): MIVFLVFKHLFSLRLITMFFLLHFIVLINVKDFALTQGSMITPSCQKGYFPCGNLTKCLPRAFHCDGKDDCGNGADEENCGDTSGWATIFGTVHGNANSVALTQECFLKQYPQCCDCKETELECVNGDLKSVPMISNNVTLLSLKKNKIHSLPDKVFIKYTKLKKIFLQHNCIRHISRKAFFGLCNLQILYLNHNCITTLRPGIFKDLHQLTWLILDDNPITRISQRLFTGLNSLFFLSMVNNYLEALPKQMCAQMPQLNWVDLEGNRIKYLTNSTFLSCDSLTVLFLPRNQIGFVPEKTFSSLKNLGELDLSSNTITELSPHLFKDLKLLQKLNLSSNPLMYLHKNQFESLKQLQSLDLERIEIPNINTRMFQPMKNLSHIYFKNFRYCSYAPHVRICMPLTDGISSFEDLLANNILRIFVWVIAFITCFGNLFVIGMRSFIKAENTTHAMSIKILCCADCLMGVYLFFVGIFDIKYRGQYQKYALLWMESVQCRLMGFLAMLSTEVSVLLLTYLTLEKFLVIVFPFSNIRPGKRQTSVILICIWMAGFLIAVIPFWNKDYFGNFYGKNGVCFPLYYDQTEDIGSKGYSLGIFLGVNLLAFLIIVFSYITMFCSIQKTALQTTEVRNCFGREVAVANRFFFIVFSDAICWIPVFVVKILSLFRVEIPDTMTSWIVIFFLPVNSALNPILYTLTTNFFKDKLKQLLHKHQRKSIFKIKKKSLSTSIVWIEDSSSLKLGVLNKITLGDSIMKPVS
cAMP inhibition (Gi) effect (LGR7 (RXFP1)),cAMP dose response with Forskolin (LGR7 (RXFP1)),Gs (cAMP increase) dose response without Forskolin (LGR7 (RXFP1)),effect on binding of Europium-INSL3 (LGR8 (RXFP2)),"specific binding of Europium-INSL3 (LGR8 (RXFP2); at 1 nM and higher concentrations, 100% is baseline) [%]",Substance
,,,less apparent,,AYAAFSV-Amide (AYAAFSV-NH2) [Peptide P59-S-Amide]
clear cAMP inhibition (Gi) effect,no significant effect,,less apparent,,GQKGQVGPPGAAVRRAYAAFSVGRRAYAAFSV-OH [Peptide P74C13V]
affected only the LGR7 (RXFP1) receptor,dose dependent decrease (Gi) effect,dose dependent increase in cAMP,,,"H2 Relaxin: H2 Relaxin (ACS), positive control, known ligand of LGR7 (RXFP1) [reference compound]"
,,,less apparent,,GQKGQVGPPGAAVRRAYAAFSV-Amide (GQKGQVGPPGAAVRRAYAAFSV-NH2) [P59C13V-Amide]

Substance,cAMP inhibition (Gi) effect (LGR7 (RXFP1)),cAMP dose response with Forskolin (LGR7 (RXFP1)),Gs (cAMP increase) dose response without Forskolin (LGR7 (RXFP1)),effect on binding of Europium-INSL3 (LGR8 (RXFP2)),"specific binding of Europium-INSL3 (LGR8 (RXFP2); at 1 nM and higher concentrations, 100% is baseline) [%]"
GQKGQVGPPGAAVRRAYAAFSV [Peptide P59C13V],clear cAMP inhibition (Gi) effect,bell-shaped curve,dose dependent increase in cAMP,positive cooperative or allosteric effect,~125
